This is an account of results in patent US9840539B2, “High affinity digoxigenin binding proteins” (UNIVERSITY OF WASHINGTON THROUGH ITS CENTER FOR …, priority 2013, dated 2017).

A short description of test [1]: Fluorescence polarization equilibrium competition binding assay, unlabeled digoxigenin. To be noted: for Ki: steroid Digoxigenin (DIG), PBS pH 7.4, 25° C., read-out: Inhibition Constant (Ki). On the procedure: (§1) Proteins were expressed in E. coli Rosetta 2 (DE3) cells with a C-terminal TEV protease cleavable His6 tag for biochemical assays. For crystallographic analysis of DIG10 variants, a 12-amino acid structurally disordered C-terminus deriving from the scaffold protein 1z1s was replaced directly with a His6 tag. Binding affinities were determined by equilibrium fluorescence polarization^30 on a SpectraMax M5e microplate reader by monitoring the anisotropy of DIG-conjugated Alexa488 as a function of protein concentration. Equilibrium fluorescence polarization competition assays were performed by examining the effect of increasing concentrations of unlabeled DIG, digitoxigenin, progesterone, and β-estradiol on the anisotropy of designed protein-DIG-conjugated Alexa488 complex.
(§2) Fluorescence polarization binding assays. Fluorescence polarization-based affinity measurements of designs and their evolved variants were performed as described^46 using Alexa488-conjugated DIG (DIG-PEG3-Alexa488). Fluorescence anisotropy (r) was measured in 96-well plate format on a SpectraMax M5e microplate reader (Molecular Devices) with λex=485 nM and λem=538 nM using a 515 nm emission cutoff filter. Fluorescence polarization equilibrium competition binding assays were used to determine the binding affinities of DIG10.3 and its variants for unlabeled digoxigenin, digitoxigenin, progesterone, β-estradiol, and digoxin. The inhibition constant for each protein-ligand interaction, Ki, was calculated from the measured total unlabeled ligand producing 50% binding signal inhibition (I50) and the Kd of the protein-label interaction according to a model accounting for receptor-depletion conditions^46.
(§3) Fluorescence polarization equilibrium competition binding assays. Fluorescence polarization equilibrium competition binding assays were used to determine the binding affinities of DIG10.3 and its variants for unlabeled digoxigenin, digitoxigenin, progesterone, β-estradiol, and digoxin. […] Unlabeled stock solutions of digoxigenin, digitoxigenin, progesterone, and β-estradiol were prepared in methanol. Unlabeled stock solutions of digoxin were prepared in DMSO. Ligand stock solutions were 10 mM for DIG, digitoxigenin, and digoxin, and 1 mM for progesterone and β-estradiol. For each ligand concentration, a negative control sample containing only DIG-PEG3-Alexa488 and the appropriate dilution of a corresponding methanol-only control solution in PBS was measured.
Fluorescence anisotropy (r) was measured as noted above. In all experiments, PBS (pH 7.4) was used as the buffer system and the temperature was 25° C. The concentration of total unlabeled ligand producing 50% binding signal inhibition (I50) was determined by fitting a plot of the anisotropy averaged over a period of 30 min to 3 hr after reaction initiation versus unlabeled ligand concentration as described previously^47. For some experiments, limiting steroid concentrations made it impossible to collect data in the regime of complete inhibition. In these cases, data were fit by fixing the anisotropy at infinite steroid concentration to a value measured for other steroids for which this value could be determined experimentally. […]
The inhibition constant for each protein-ligand interaction, Ki, was calculated from the measured IC50 and the Kd of the protein-label interaction according to a model accounting for receptor-depletion conditions^47. […]
On the technique in general: In fluorescence polarisation assays a small probe gives low polarisation when free and higher when bound to something large.

Test [2] can be described thus: Fluorescence polarization equilibrium competition binding assay, unlabeled β-estradiol. To be noted: steroid β-estradiol; PBS pH 7.4, 25° C.; read-out: Inhibition Constant (Ki). On the procedure:
as §1
as §2, with “The inhibition constant for each protein-ligand interaction, Ki, was calculated from the measured total unlabeled ligand producing 50% binding signal inhibition (I50) and the Kd of the protein-label interaction according to a model accounting for receptor-depletion conditions^46.” left out
(§4) Fluorescence polarization equilibrium competition binding assays. Fluorescence polarization equilibrium competition binding assays were used to determine the binding affinities of DIG10.3 and its variants for unlabeled digoxigenin, digitoxigenin, progesterone, β-estradiol, and digoxin. […] For each ligand concentration, a negative control sample containing only DIG-PEG3-Alexa488 and the appropriate dilution of a corresponding methanol-only control solution in PBS was measured.
(§5) Fluorescence anisotropy (r) was measured as noted above. […]

Test [3] in a line: Fluorescence polarization equilibrium competition binding assay, unlabeled digoxin. On the procedure:
as §2
as §3, with “Ligand stock solutions were 10 mM for DIG, digitoxigenin, and digoxin, and 1 mM for progesterone and β-estradiol.” left out
Fluorescence anisotropy (r) was measured as noted above. […] The concentration of total unlabeled ligand producing 50% binding signal inhibition (I50) was determined by fitting a plot of the anisotropy averaged over a period of 30 min to 3 hr after reaction initiation versus unlabeled ligand concentration as described previously^47. […] In these cases, data were fit by fixing the anisotropy at infinite steroid concentration to a value measured for other steroids for which this value could be determined experimentally. […]

A short description of test [4]: Fluorescence polarization equilibrium competition binding assay, unlabeled progesterone. To be noted: steroid progesterone; PBS pH 7.4, 25° C.; read-out: Inhibition Constant (Ki). On the procedure: as §1
as §2, with “The inhibition constant for each protein-ligand interaction, Ki, was calculated from the measured total unlabeled ligand producing 50% binding signal inhibition (I50) and the Kd of the protein-label interaction according to a model accounting for receptor-depletion conditions^46.” left out
as §4, §5

The nature of test [5]: Fluorescence polarization equilibrium competition binding assay, unlabeled digitoxigenin. The note with it: steroid digitoxigenin; PBS pH 7.4, 25° C.; read-out: Inhibition Constant (Ki). On the procedure:
as §1
as §2, with “The inhibition constant for each protein-ligand interaction, Ki, was calculated from the measured total unlabeled ligand producing 50% binding signal inhibition (I50) and the Kd of the protein-label interaction according to a model accounting for receptor-depletion conditions^46.” left out
as §4, §5

Where a chain is given by its changes, count along the chain named. Names may count otherwise.

B1: DIG10.3: DIG10.2 variant with C23S, H90L, V92A, A99Y, S103A, L105W; SEQ ID NO: 15 (protein)
chain: MNAKEIVVHALRLLENGDARGWSDLFHPEGVLEYPYPPPGYKTRFEGRETIWAHMRLFPEYMTIRFTDVQFYETADPDLAIGEFHGDGVLTASGGKLAYDYIAVWRTRDGQILLYRLFFNPLRVLEPLGGVEAAAKIVQGA
modifications: (130)..(141) amino acids are optionally absent
Broadly, the Ki is a dissociation constant, usually derived from enzyme kinetics or from competition with a known ligand. For B1, in test [1], the “DIG binding affinity relative to widely used anti-DIG antibodies” value is “within a factor of two”. Besides, in test [1], the “affinity for DIG (in words)” value is given as “picomolar affinity”. Also, the inhibitory constant (Ki) in test [1] was 0.653 ± 0.262 nM; in test [2], 2100 ± 800 nM; in test [3] (steroid digoxin, PBS pH 7.4, 25° C., read-out: Inhibition Constant (Ki)) it was 0.223 ± 0.105 nM; in test [4] it was 243 ± 91 nM; in test [5] it was 19 ± 7 nM. In test [3], the “affinity for digoxin (in words)” value is given as “picomolar affinity”. The “affinity for digoxin compared with DIG” value in test [3] (competition FP) is recorded as “slightly higher than that for DIG”.

B2: DIG10.3 Y34F/Y99F/Y101F: DIG10.3 triple mutant, SEQ ID NO: 22 (protein)
chain: B1 chain with Y34F, Y99F, Y101F
modifications: (130)..(141) amino acids are optionally absent
As for B2, the inhibitory constant (Ki) in test [1] was 580 ± 229 nM; in test [2], 1600 ± 600 nM; in test [4], less than 17 nM; in test [5], less than 16 nM.

B3: DIG10.3 Y101F: DIG10.3 point mutant, SEQ ID NO: 19 (protein)
chain: B1 chain with Y101F
modifications: (130)..(141) amino acids are optionally absent
As for B3, the Ki in test [1] was 39 ± 8 nM; in test [2], 1700 ± 400 nM; in test [4], 30 ± 9 nM; in test [5] it was less than 3.8 nM.
